Among the data in patent US20070093415A1 are concentration below which no significant binding was seen and Kd values, retold here.

Test [1] addresses Aβ1-40 amyloid (amyloid form of the Aβ1-40 peptide). Nature of the test: ELISA on immobilized Aβ1-40 amyloid, FIG. 5. (In general: An ELISA detects its analyte on a solid surface through an enzyme-linked reagent.)
Test [2] has the same target. The test is described as follows: ELISA on immobilized Aβ1-40 amyloid, streptavidin-alkaline phosphatase detection.

No end group written: not given here. *: point of attachment. Biotin = O=C1N[C@H]2[C@H](CS[C@H]2CCCCC(=O)*)N1

Regarding Biotin-DWGKGGRWRLWPGASGKTEA, in test [1], the concentration below which no significant binding was seen is more than 5 µM.
Consider Biotin-AECDWGKGGRWRLWPGASGKTEACGP (also: flanking cysteines can form a disulfide bond), for which the Kd (as a rule, the concentration at which binding is half-saturated) in test [2] was determined as 320 nM.
